Data published in patent US20250313607A1.

Columns and labels:
Assay in all cases: cell-based or functional assay
[1] = biological target: VEGFR NatE MESA receptor pair: CTEVp (190K) receptor with a VEGFR1 signal sequence, ECD, and TMD paired with a NTEVp (WT) receptor with a VEGFR2 signal sequence, ECD, and TMD (human; tobacco etch virus)
[2] = biological target: IL-10R NatE MESA receptor pair in which both ECDs are IL-10Rβ (human; tobacco etch virus)
[3] = biological target: IL-10R NatE MESA receptor pair: CTEVp receptor with an IL-10Ra signal sequence, ECD, and TMD paired with a NTEVp receptor with an IL-10Rb ECD and TMD and a hCD8a signal sequence (human; tobacco etch virus)
[4] = biological target: IL-10R NatE MESA receptor pair in which both ECDs are IL-10Rα (human; tobacco etch virus)

Sequence of human vascular endothelial growth factor VEGFA165 (P15692 other isoform, or with tags, fused parts or gaps limits assumed): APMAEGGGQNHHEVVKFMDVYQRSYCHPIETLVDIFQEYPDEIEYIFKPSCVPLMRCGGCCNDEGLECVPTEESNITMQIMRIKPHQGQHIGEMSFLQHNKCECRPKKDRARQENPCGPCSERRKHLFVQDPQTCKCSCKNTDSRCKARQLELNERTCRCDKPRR

human vascular endothelial growth factor VEGFA165 (from UniProt P15692 27-191) (ligand)
dose of recombinant VEGF giving the highest reporter signal, genomically integrated receptors in HEK293FT cells [1]: 100 ng/mL

human interleukin 10 (IL-10) (from UniProt P22301 19-178) (ligand)
fold induction of reporter expression, transfected receptors with co-expressed human IL-10 (fold induction) [2]: 1
IL-10 concentration at which reporter expression plateaus, genomically integrated receptors in Jurkat T cells [3]: 250 ng/mL
IL-10 concentration at which reporter expression saturates, genomically integrated receptors in HEK293FT cells [3]: 250 ng/mL
lowest IL-10 concentration distinguished by reporter expression, genomically integrated receptors in HEK293FT cells [3]: 16 ng/mL
lowest IL-10 dose detected, Jurkats sorted for the top octile of mNeonGreen expression [3]: 2 ng/mL
lowest IL-10 dose with a significant increase in reporter expression, antibiotic-selected Jurkat T cells [3]: 16 ng/mL
fold induction of reporter expression, transfected receptors with co-expressed human IL-10 (fold induction) [4]: 1
